Reference: the supplement of paper PMC12764529
± gives the half width of the 95% confidence interval.

Experiments:
[1] = folding stability dG unfold from chymotrypsin proteolysis; higher = more stable
Summary of the method: (§1)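 Designed mini-proteins with no cysteine and under 80 residues were kept only if AlphaFold2 dimer inter-PAE was above 15. In a PA-tagged cDNA display construct, they were digested with trypsin and chymotrypsin and then sequenced. K50 was inferred by Bayesian fitting of counts, and unfolding free energy was derived per protease or combined against a sequence-predicted unfolded-state K50 and a shared folded-state K50.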

[2] = folding stability dG unfold (combined trypsin and chymotrypsin); higher = more stable
Summary of the method: as §1

[3] = folding stability dG unfold from trypsin proteolysis; higher = more stable
Summary of the method: as §1

| Sequence | folding stability dG unfold [1] [kcal/mol] | folding stability dG unfold [2] [kcal/mol] | folding stability dG unfold [3] [kcal/mol] |
| --- | --- | --- | --- |
| SAGKITITVEKNEDGELTVTIRIEKDGKPIEEITFESEEEALEAAKKLAEELKKKYPDLKIEVEIVPRPSAG [r5_383_TrROS_Hall] | 2.65 ± 0.22 | 3.53 ± 0.64 | 3.47 ± 0.27 |
| SAGKKIDPEALAKRILKEFGLPEDAEVEVEEIENTYIARFPEATALFTIEDDEVTVFLAPARPEPELAGSAG [r5_190_TrMRF] | 0.598 ± 0.18 | 0.881 ± 0.18 | 0.984 ± 0.11 |
| SAGKKIKLELYFEENGLKVEVEFDEETGVITVKVELKDGTRIEAKFELLPDGTLKLEIKIEKVKPGEKPSAG [r5_766_TrROS_Hall] | 3.87 ± 0.27 | 3.49 ± 0.46 | 2.94 ± 0.15 |
| SAGKKKKFKIVSVEVEVKEVNGKLVIKMKVKDKKTGKTYEITMTLKVVDKKTKKTYTKTLKVTIKLPKSAGG [r19_129_TrROS_Hall] | 4.44 ± 0.16 | 4.04 ± 0.4 | 3.46 ± 0.15 |
| SAGKKKKITIEIVIKPKTLEELENKIKEIAKKLGLKKIEKIEIVKIEKDKNGKIKKVVIKITLTEEALKSAG [r5_575_TrROS_Hall] | 3.25 ± 0.24 | 2.61 ± 0.31 | 1.51 ± 0.12 |
| SAGKKKKVVITIKVEKSEEEVKELVKKLAEEAKKKGKEVVIKIEVDGKTYEFTLEDIKKLPPNAKVTLLSAG [r5_626_TrROS_Hall] | 1.67 ± 0.096 | 1.58 ± 0.44 | 1.56 ± 0.11 |
| SAGKKPKVIEKTITIKVYDKKTKKEYEIKIKVRVVKKDGKVIEEFSEEEAKELAKKLAEELKKNKNIKPSAG [r5_426_TrROS_Hall] | 2.44 ± 0.04 | 2.22 ± 0.14 | 1.81 ± 0.097 |
| SAGKKSIVAPYEELKKIIELLPSGKKYKVIASDPNGKKIEGTIEVKGGKAKIEPGPKNTFKDLLIVITGSAG [r5_85_TrMRF] | 0.3 ± 0.13 | 0.248 ± 0.12 | 0.248 ± 0.061 |
| SAGKKTIMIFIPGNMPLDTLKSALRNLPPNVEIHIMYPGQMQTITYDPDDIEIELPPGFPNFYIMIEVPSAG [r5_373_TrROS] | 2.646 ± 0.017 | 2.72 ± 0.057 | 2.68 ± 0.13 |
| SAGKKVKINIKLPEGAKVTKIEFDKKTKTIKITIYDKNGKKVLEMTFVYKDKNGKYKIVKKITVYLKKPSAG [r5_434_TrROS_Hall] | 4.19 ± 0.068 | 4.09 ± 0.27 | 2.97 ± 0.27 |
| SAGKKVVIIEIEEVTNEDGEKEYKIRVLVKDEETGEVTEREITVKEGESIEDLIKKALEEGADEVIIVPSAG [r5_37_TrROS_Hall] | 4.15 ± 0.14 | 4.12 ± 0.25 | 3.98 ± 0.13 |
| SAGKKYVVVIDIEVKMPGKTKPRPIVIPVPEGETIKEQLSELPGLDNVKIKIQVIPPDQDPDFAGQPISAGG [r19_339_TrROS] | 1.76 ± 0.17 | 1.2 ± 0.29 | 0.569 ± 0.16 |
| SAGKLKPGDPVKIKIEIERDPGNGMVRVTYKIEFKDGMYVTMIIPPNGPIHVEIFNPDDGKEREETIPLSAG [r5_55_TrROS] | 2.67 ± 0.096 | 2.46 ± 0.26 | 2.15 ± 0.085 |
| SAGKMKIISVKIENNTITIEIYKDGKKIKKIEIKKNKKKIIIKIEIEPGEEIKIKIEINGKTYEITIKPSAG [r5_533_TrROS_Hall] | 4.64 ± 0.23 | 4.11 ± 0.46 | 2.89 ± 0.26 |
| SAGKMVKITITGPADKIKELLKKLFPNAEVEVKKVNGKLVFYFKPGEEVIEIEITDKDGNKLTIKIEKVSAG [r5_123_TrROS_Hall] | 3.74 ± 0.087 | 3.48 ± 0.17 | 2.54 ± 0.066 |
| SAGKPEWKLVETIEVTIEVPPGVTVEEIEKKLLEALKEKGIKEVKIEVTYDKENKTITVRVEVLVKKEKSAG [r5_924_TrROS_Hall] | 1.92 ± 0.11 | 1.66 ± 0.26 | 1.27 ± 0.13 |
| SAGKPKKKIKIKLYNVDTGEEIEIEVTVEELKKLLEKLGFEVVKIEYDEETGEVTIYVKVDGYYLEIEESAG [r5_521_TrROS_Hall] | 3.55 ± 0.13 | 3.41 ± 0.28 | 2.63 ± 0.16 |
| SAGKPKKKKRTITIPIEHNPNNGNFTIKIRWPGRPVTVPFPGDDPEEMLDNMLNELENRLGWPIDEVEISAG [r5_251_TrROS] | -0.116 ± 0.27 | 0.429 ± 0.23 | 0.932 ± 0.069 |
